According to PMC8980529, “Complement Factor H-Related Proteins FHR1 and FHR5 Interact With Extracellular Matrix Ligands, Reduce Factor H Regulatory Activity and Enhance Complement Activation” (Frontiers in Immunology, 2022):

B1: Human vitronectin (natural protein, UniProt P04004 20-478, looked up)
chain: DQESCKGRCTEGFNVDKKCQCDELCSYYQSCCTDYTAECKPQVTRGDVFTMPEDEYTVYDDGEEKNNATVHEQVGGPSLTSDLQAQSKGNPEQTPVLKPEEEAPAPEVGASKPEGIDSRPETLHPGRPQPPAEEELCSGKPFDAFTDLKNGSLFAFRGQYCYELDEKAVRPGYPKLIRDVWGIEGPIDAAFTRINCQGKTYLFKGSQYWRFEDGVLDPDYPRNISDGFDGIPDNVDAALALPAHSYSGRERVYFFKGKQYWEYQFQHQPSQEECEGSSLSAVFEHFAMMQRDSWEDIFELLFWGRTSAGTRQPQFISRDWHGVPGQVDAAMAGRIYISGMAPRPSLAKKQRFRHRNRKGYRSQRGHSRGRNQNSRRPSRATWLSLFSSEESNLGANNYDDYRMDWLVPATCEPIQSVFFFSGDKYYRVNLRTRRVDTVDPPYPRSIAQYWLGCPAPGHL
notes: vitronectin, human; source: bought: Sigma-Aldrich
B2: Recombinant human factor H-related protein 5 (natural protein, UniProt Q9BXR6 19-569, looked up)
chain: EGTLCDFPKIHHGFLYDEEDYNPFSQVPTGEVFYYSCEYNFVSPSKSFWTRITCTEEGWSPTPKCLRMCSFPFVKNGHSESSGLIHLEGDTVQIICNTGYSLQNNEKNISCVERGWSTPPICSFTKGECHVPILEANVDAQPKKESYKVGDVLKFSCRKNLIRVGSDSVQCYQFGWSPNFPTCKGQVRSCGPPPQLSNGEVKEIRKEEYGHNEVVEYDCNPNFIINGPKKIQCVDGEWTTLPTCVEQVKTCGYIPELEYGYVQPSVPPYQHGVSVEVNCRNEYAMIGNNMITCINGIWTELPMCVATHQLKRCKIAGVNIKTLLKLSGKEFNHNSRIRYRCSDIFRYRHSVCINGKWNPEVDCTEKREQFCPPPPQIPNAQNMTTTVNYQDGEKVAVLCKENYLLPEAKEIVCKDGRWQSLPRCVESTAYCGPPPSINNGDTTSFPLSVYPPGSTVTYRCQSFYKLQGSVTVTCRNKQWSEPPRCLDPCVVSEENMNKNNIQLKWRNDGKLYAKTGDAVEFQCKFPHKAMISSPPFRAICQEGKFEYPICE
notes: complement factor H-related protein 5 (FHR5), human, recombinant; called 'full-length FHR5' in the discussion; Commercial recombinant protein; The discussion speaks of 'the dimerized full-length protein'; also called FHR5; full-length FHR5; source: bought: Novoprotein via Gentaur (recombinant)
B3: Recombinant human factor H-related protein 1 (natural protein, UniProt Q03591 19-330, looked up)
chain: EATFCDFPKINHGILYDEEKYKPFSQVPTGEVFYYSCEYNFVSPSKSFWTRITCTEEGWSPTPKCLRLCFFPFVENGHSESSGQTHLEGDTVQIICNTGYRLQNNENNISCVERGWSTPPKCRSTDTSCVNPPTVQNAHILSRQMSKYPSGERVRYECRSPYEMFGDEEVMCLNGNWTEPPQCKDSTGKCGPPPPIDNGDITSFPLSVYAPASSVEYQCQNLYQLEGNKRITCRNGQWSEPPKCLHPCVISREIMENYNIALRWTAKQKLYLRTGESAEFVCKRGYRLSSRSHTLRTTCWDGKLEYPTCAKR
notes: complement factor H-related protein 1 (FHR1), human, recombinant; Commercial recombinant protein; also called FHR1; source: bought: Novoprotein via Gentaur (recombinant)

Legend:
Details in all cases: both partners purified
[1] = molecular target: B2; assay: peptide or protein array; ECM proteins (0.5 mg/ml) printed on nitrocellulose-covered slides in triplicates, blocked with 4% BSA; incubated with FHR1 (5, 25, 50 µg/ml) or FHR5 (0.5, 5, 20 µg/ml); detected with goat anti-human FH or anti-FHR5 and Alexa-647 anti-goat IgG; signal above gelatin taken as binding
Purified human factor H = molecular target: T1, Purified human factor H (human, UniProt P08603 19-1231); assay: peptide or protein array; competition: printed ECM proteins incubated with 25 µg/ml FH with or without FHR1 (5, 25, 50 µg/ml) or FHR5 (0.5, 5, 20 µg/ml); bound FH detected with mAb A254 that does not cross-react with FHR1 and FHR5
T1 construct: complement factor H, human, 155-kDa serum glycoprotein, 20 CCP domains; also called FH; source: bought: Merck (purified human)

C3(H2O) = molecular target: T2, C3(H2O) (human, UniProt P01024 23-667; P01024 672-1663); assay: ELISA; 10 µg/ml FHR5, CCPs 1-4, CCPs 3-7, CCPs 8-9 and alpha-1-antitrypsin immobilised, incubated with 5 µg/ml C3, C3(H2O) and C3b; detected with anti-human C3
T2 construct: complement C3 beta chain, human; complement C3 alpha chain, human; Same chains as C3; source: generated from purified human C3 (Merck) with ten freeze/thaw cycles

Purified human C3b = molecular target: T3, Purified human C3b (human, UniProt P01024 23-667; P01024 749-1663); assay: ELISA; FHR5, CCPs 1-4, CCPs 3-7, CCPs 8-9 and HSA immobilised at 5 µg/ml, blocked with 4% BSA; 20 µg/ml C3b, iC3b, C3c or 10 µg/ml C3d added; detected with anti-human C3 or anti-human C3d
T3 construct: complement C3 beta chain, human; complement C3b alpha' chain, human; also called soluble C3b; fluid-phase C3b; source: bought: Merck (purified human)

Human vitronectin = molecular target: B1; assay: peptide or protein array; ECM proteins (0.5 mg/ml) printed on nitrocellulose-covered slides in triplicates, blocked with 4% BSA; incubated with FHR1 (5, 25, 50 µg/ml) or FHR5 (0.5, 5, 20 µg/ml); detected with goat anti-human FH or anti-FHR5 and Alexa-647 anti-goat IgG; signal above gelatin taken as binding

T3 sequence (P01024 23-667, chain 1 of 2): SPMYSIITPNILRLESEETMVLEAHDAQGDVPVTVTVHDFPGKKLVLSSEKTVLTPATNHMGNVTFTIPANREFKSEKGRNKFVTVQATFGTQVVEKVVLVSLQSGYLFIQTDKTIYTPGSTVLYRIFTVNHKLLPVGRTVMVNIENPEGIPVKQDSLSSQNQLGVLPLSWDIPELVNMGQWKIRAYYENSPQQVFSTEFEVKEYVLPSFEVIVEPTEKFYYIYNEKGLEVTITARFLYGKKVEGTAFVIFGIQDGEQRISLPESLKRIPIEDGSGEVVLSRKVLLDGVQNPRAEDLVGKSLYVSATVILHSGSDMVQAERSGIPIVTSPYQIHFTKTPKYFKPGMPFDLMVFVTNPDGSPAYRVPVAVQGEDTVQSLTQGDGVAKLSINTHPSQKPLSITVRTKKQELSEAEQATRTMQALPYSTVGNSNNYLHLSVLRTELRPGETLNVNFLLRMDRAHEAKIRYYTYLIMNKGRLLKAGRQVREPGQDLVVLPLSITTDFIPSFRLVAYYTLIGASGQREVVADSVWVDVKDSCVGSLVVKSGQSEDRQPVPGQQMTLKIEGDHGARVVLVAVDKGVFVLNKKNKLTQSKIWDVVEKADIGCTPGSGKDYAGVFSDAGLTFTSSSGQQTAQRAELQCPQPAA
T3 sequence (P01024 749-1663, chain 2 of 2): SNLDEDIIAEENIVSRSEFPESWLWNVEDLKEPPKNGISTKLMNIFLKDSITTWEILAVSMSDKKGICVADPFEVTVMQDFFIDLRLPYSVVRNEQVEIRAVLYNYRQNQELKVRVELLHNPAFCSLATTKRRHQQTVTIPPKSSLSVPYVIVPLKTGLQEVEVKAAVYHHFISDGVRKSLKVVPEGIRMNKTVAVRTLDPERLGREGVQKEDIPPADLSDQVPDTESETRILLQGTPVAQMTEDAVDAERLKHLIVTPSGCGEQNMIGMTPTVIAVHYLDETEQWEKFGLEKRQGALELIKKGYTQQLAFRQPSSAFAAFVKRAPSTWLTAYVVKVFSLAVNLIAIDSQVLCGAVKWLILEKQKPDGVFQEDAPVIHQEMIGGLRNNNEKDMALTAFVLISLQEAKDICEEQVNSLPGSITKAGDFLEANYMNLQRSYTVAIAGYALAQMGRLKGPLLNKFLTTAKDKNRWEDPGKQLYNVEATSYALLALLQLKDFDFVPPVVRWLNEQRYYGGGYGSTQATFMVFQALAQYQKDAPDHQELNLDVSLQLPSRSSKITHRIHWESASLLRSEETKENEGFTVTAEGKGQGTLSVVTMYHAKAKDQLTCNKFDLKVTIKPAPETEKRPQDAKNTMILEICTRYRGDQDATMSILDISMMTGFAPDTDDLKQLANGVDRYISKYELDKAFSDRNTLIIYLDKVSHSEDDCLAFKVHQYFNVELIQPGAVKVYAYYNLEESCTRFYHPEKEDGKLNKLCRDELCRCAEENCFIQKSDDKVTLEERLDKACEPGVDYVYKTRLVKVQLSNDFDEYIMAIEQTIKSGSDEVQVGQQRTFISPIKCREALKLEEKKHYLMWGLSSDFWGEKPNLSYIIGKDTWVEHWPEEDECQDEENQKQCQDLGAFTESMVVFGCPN
T2 sequence (P01024 23-667, chain 1 of 2): as the sequence (P01024 23-667, chain 1 of 2) above
T2 sequence (P01024 672-1663, chain 2 of 2): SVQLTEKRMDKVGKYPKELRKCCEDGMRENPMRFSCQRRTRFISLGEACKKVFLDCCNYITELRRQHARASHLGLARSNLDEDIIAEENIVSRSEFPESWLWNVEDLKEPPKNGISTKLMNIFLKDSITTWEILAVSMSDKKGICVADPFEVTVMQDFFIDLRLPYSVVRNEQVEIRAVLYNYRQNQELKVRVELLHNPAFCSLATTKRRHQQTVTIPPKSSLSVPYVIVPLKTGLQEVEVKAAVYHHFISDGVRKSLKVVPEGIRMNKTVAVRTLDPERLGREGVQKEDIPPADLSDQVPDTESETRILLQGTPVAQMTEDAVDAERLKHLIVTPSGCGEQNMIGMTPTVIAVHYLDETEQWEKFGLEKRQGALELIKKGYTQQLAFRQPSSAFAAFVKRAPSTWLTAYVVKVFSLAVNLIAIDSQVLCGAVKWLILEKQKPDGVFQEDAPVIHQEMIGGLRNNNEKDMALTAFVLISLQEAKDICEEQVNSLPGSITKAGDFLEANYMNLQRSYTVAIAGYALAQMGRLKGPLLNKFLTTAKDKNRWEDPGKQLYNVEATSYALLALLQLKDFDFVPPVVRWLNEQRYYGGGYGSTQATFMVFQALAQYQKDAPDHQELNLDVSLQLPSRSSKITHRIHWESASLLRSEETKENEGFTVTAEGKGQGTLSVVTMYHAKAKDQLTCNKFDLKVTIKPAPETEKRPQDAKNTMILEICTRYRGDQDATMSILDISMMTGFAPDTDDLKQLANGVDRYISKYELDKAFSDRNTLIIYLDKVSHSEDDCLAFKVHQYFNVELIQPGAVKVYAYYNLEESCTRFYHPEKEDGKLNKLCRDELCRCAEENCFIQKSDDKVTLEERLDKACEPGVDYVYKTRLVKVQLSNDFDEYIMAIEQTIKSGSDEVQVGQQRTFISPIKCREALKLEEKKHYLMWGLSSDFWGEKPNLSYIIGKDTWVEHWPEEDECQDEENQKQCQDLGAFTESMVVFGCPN

Question: Does B1 bind [1]?
Answer: Result: binds

Question: Does B1 bind (Purified human factor H)?
Answer: Result: binds

Question: What does the source list for B2?
Answer: binding result (C3(H2O)): binds; binding result (Purified human C3b): binds

Question: Does B3 bind (Human vitronectin)?
Answer: Result: binds
